Data taken from US20150329597A1.

Columns and labels:
[1] = target: RSV F monomer (uncleaved RSV F Delp23 Furdel; Delp23 Furdel Truncated HIS construct) (respiratory syncytial virus); test: SPR (BIAcore), D25 Fab immobilised on CM5 chip, F monomer as analyte, 1:1 fit
[2] = target: RSV F monomer (uncleaved RSV F Delp23 Furdel; Delp23 Furdel Truncated HIS construct) (respiratory syncytial virus); test: analytical HPLC-SEC of F monomer with 1:1 molar D25 Fab; monomer alone ~11.5 min
[3] = target: RSV F monomer (uncleaved RSV F Delp23 Furdel; Delp23 Furdel Truncated HIS construct) (respiratory syncytial virus); test: preparatory SEC of F monomer with D25 Fab at 1:1 molar ratio; monomer alone ~1.4 mls
[4] = target: RSV F trimerized-monomer: RSV Monomer (Delp23 Furdel) + HRA peptide (respiratory syncytial virus); test: preparatory SEC of the trimerized F fraction with about 10-fold excess D25 Fab; trimerized monomer alone ~1.2 mls

## D25 Fab harboring a HIS-tag and Strep-tag
[1]
  Kd: 0.053 nM
  koff: 9.9e-06 s⁻¹
  kon: 190000 M⁻¹ s⁻¹
[2]
  Retention Time Wyatt SEC WTC-030S5 (mixture): 10.3 min
[3]
  Retention Volume Micro-Superdex 200 (mixture): 1.3 mls
[4]
  Retention Volume Micro-Superdex 200 (mixture): 1.1 mls
